Reference: the supplement of paper PMC9170038

Test system: MS2 coat protein
Test: apparent KD of MS2 coat protein; designed switch direction (-1 OFF switch, 1 ON switch): 1; higher = weaker reporter binding
In short: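 The reported apparent KD is a per-design median over clusters, from curve fits of normalised cluster fluorescence. Protein titrations used SNAP-549-labelled MS2 coat protein, doubled from 0.7 or 1.5 nM to 3 µM, in Tris-HCl pH 7.5 buffer with KCl, MgCl2, BSA, DTT, tRNA and Tween-20, with no input, 200 uM small-molecule ligand, or an oligonucleotide input. The RNA switches were transcribed on Illumina chips by stalled E. coli RNA polymerase.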

[1] = Eterna round: R95, input ligand: FMN 200 uM
[2] = Eterna round: R95, input ligand: microRNA oligo, concentration not stated
[3] = Eterna round: R95, input ligand: none
[4] = input ligand: microRNA oligo, concentration not stated

Sequence	apparent KD of MS2 coat protein [1]	apparent KD of MS2 coat protein [2]	apparent KD of MS2 coat protein [3]	apparent KD of MS2 coat protein [4]	apparent KD of MS2 coat protein (input ligand: FMN 200 uM)	apparent KD of MS2 coat protein (input ligand: none)
GAAGAACAUGAGGAUCACCCAUGUAAGCGGAAGCUAGGAUAUGCGGGAAAGAAGAGAGAAGCAGAAGGAGUAGGAA [JR_SS1_Sub029] (puzzle: Same State 1)	29.6 nM	34.4 nM	48.8 nM	–	–	–
GACAAGAAGUCAUAGGAUAUACAAGGAGUGACAUGAGGAUCACCCAUGUACCAUCACACUACCCAGUAGAAGGAUGGCAAUAAAA [Oranor] (puzzle: Same State 2)	50.3 nM	384 nM	542 nM	–	–	–
GACAAUCUAUCUGAGGAUAUCAUGAAAAAAACAUGAGGAUCACCCAUGUGCAGGAAAACUGCAUAUGAGAAGGCAGAUAGAUUGG [salish99_SS2_r3_011] (puzzle: Same State 2)	31.2 nM	485 nM	613 nM	–	–	–
GACAAUCUAUCUGAGGAUAUCAUGAAAAAAACAUGAGGAUCACCCAUGUGCAGGAAAACUGCAUAUGAGAAGGCAGAUAGAUUGU [salish99_SS2_r3_010] (puzzle: Same State 2)	45.3 nM	689 nM	627 nM	–	–	–
GACAAUUGACAUGAGGAUCACCCAUGUAUUACUUCGUGUUUUUGCUCGUCUUAUGUUAGGUUCGAAAGGAGCUUAAC [Polished] (puzzle: Sensor for hsa-mir-208a version 2)	68.6 nM	16.2 nM	86.7 nM	–	–	–
GACAGACAUGAGGAUCACCCAUGUACAAACGUACAAGGAUAUGUGUGGAAACCGUACUAUACAGAAGGUGUCUGUC [SS1 - 90] (Eterna round: R96, puzzle: Same State 1)	–	–	–	71.3 nM	–	–
GACAUGAGGAUCACCCAUGUGAGCGCUUCAAUUUGCGCGACACAGGAUAUAGCAUGCUAUGCAUGCUAGAAGGGUGGUAAAGAC [Risoeserxe] (Eterna round: R96, puzzle: Same State NG 3)	–	–	–	49.9 nM	595 nM	140 nM
GAGAAGAGGGACAAGGAUAUGUCAGGAGAGACAUGAGGAUCACCCAUGUAGAGGUUGGAGGAGAGACAGAAGGUGUAGGGAGCGA [JR_SS2_Sub012] (puzzle: Same State 2)	50.1 nM	57.2 nM	98 nM	–	–	–
GAGAGACGAUUAGGAUAUACAGUGAUAAUGAUAGUAGAAGGAAUUGACAUGAGGAUCACCCAUGUAGGACUAAUCCAGAGAGAG [Parity 27 - Jieux - Same State NG 1] (Eterna round: R96, puzzle: Same State NG 1)	–	–	–	36.4 nM	46 nM	52.2 nM
GAGAGAGGGUGAGGAUAUUUAGUGAUAAUGAUAAGAGAAGGCACAGACAUGAGGAUCACCCAUGUGGGAAUAAUCCAGAGAGAG [Parity 8 - Jieux - Same State NG 1] (Eterna round: R96, puzzle: Same State NG 1)	–	–	–	167 nM	–	–
GAGAGAGGGUGAGGAUAUUUGGUGAUAAUGAUGGGAGAAGGCACAGACAUGAGGAUCACCCAUGUGGGAAUAAUCCAGAGAGAG [Parity 11 - Jieux - Same State NG 1] (Eterna round: R96, puzzle: Same State NG 1)	–	–	–	182 nM	582 nM	410 nM
GAGAGAUGGCGAGGAUAUGCGGUGAUAAUGAUGGCAGAAGGCGCUGACAUGAGGAUCACCCAUGUGGGAAUAAUCCAGAGAGAG [Parity 17 - Jieux - Same State NG 1] (Eterna round: R96, puzzle: Same State NG 1)	–	–	–	564 nM	279 nM	683 nM
GAGCCAGUCCGAGGAUAUUCAUACAUGAGGAUCACCCAUGUAGGCUCAGAAAAGAAAGAGCCUUGGGAGAAGGCGGACUGGCUC [Xeonanisa<<6] (Eterna round: R96, puzzle: Same State NG 2)	–	–	–	6.06 nM	6.96 nM	10.9 nM
GAGGGACAGACCAACAUGAGGAUCACCCAUGUCCUCGCAGGUCAGGAUAUCCGGAGGUAGACGAAGGAGAAGGGACGGUGAACC [AK SSNG3-V2-38] (Eterna round: R96, puzzle: Same State NG 3)	–	–	–	251 nM	893 nM	631 nM
GAGGGAUGAGCGUAGGAUAUAGGAGAAGUGACAUGAGGAUCACCCAUGUGGUAUGAGGGAUGAUUCUAGAAGGACGCGGUAGGAG [JR_SS2_Sub062] (puzzle: Same State 2)	154 nM	494 nM	116 nM	–	–	–
GAGUAGUUGAAAGGAUAUCCAUUGUUAUAGAAUGGAGAAGGUUCUAACAUGAGGAUCACCCAUGUAGGACUAUUCCUGUGUAUC [Parity 81 - Jieux - Same State NG 1] (Eterna round: R96, puzzle: Same State NG 1)	–	–	–	8.16 nM	9.98 nM	11.9 nM
GAGUAGUUGAUAGGAUAUUGAUUGUUAUAGGAUCAAGAAGGAUCUAACAUGAGGAUCACCCAUGUAGGACUAUUCCUGUGUAUC [Parity 84 - Jieux - Same State NG 1] (Eterna round: R96, puzzle: Same State NG 1)	–	–	–	16.9 nM	–	–
GAGUAUGAACUACAGGAUAUAUAGCAGAUGACAUGAGGAUCACCCAUGUAAGAGAAAGGAGGGAAAUAGAAGGGUAUGGGAGGUG [JR_SS2_Sub036] (puzzle: Same State 2)	37.6 nM	33.9 nM	31.4 nM	–	–	–
GAGUGACGAUUAGGAUAUAUAGUGAUAAUGAUAAUAGAAGGAAUUGACAUGAGGAUCACCCAUGUAGGACUAAUCCAGAGAGAG [Parity 28 - Jieux - Same State NG 1] (Eterna round: R96, puzzle: Same State NG 1)	–	–	–	44.9 nM	–	–
GAGUGAUGGGUUAGUAACUGCUGGGAAGGACAUGAGGAUCACCCAUGUGAGUAACGAGCUUGUGCUCGUCUUAUAAG [JR_SHM208A_Sub022] (puzzle: Sensor for hsa-mir-208a)	388 nM	192 nM	425 nM	–	–	–
GAGUGGAGGAAAGGAUAUACAAUGAUAAUCACAGUAGAAGGUUCUAACAUGAGGAUCACCCAUGUAGGACUAUACCUGAGAGAA [Parity 47 - Jieux - Same State NG 1] (Eterna round: R96, puzzle: Same State NG 1)	–	–	–	10.8 nM	9.26 nM	15.5 nM
